Paper PMC4806292, “Structural insights and in vitro reconstitution of membrane targeting and activation of human PI4KB by the ACBD3 protein” (Scientific Reports, 2016)

B1: Acyl-coenzyme A binding domain containing protein 3 (ACBD3), full length, untagged (natural protein, human, UniProt Q9H3P7 1-528, looked up)
chain: MAAVLNAERLEVSVDGLTLSPDPEERPGAEGAPLLPPPLPPPSPPGSGRGPGASGEQPEPGEAAAGGAAEEARRLEQRWGFGLEELYGLALRFFKEKDGKAFHPTYEEKLKLVALHKQVLMGPYNPDTCPEVGFFDVLGNDRRREWAALGNMSKEDAMVEFVKLLNRCCHLFSTYVASHKIEKEEQEKKRKEEEERRRREEEERERLQKEEEKRRREEEERLRREEEERRRIEEERLRLEQQKQQIMAALNSQTAVQFQQYAAQQYPGNYEQQQILIRQLQEQHYQQYMQQLYQVQLAQQQAALQKQQEVVVAGSSLPTSSKVNATVPSNMMSVNGQAKTHTDSSEKELEPEAAEEALENGPKESLPVIAAPSMWTRPQIKDFKEKIQQDADSVITVGRGEVVTVRVPTHEEGSYLFWEFATDNYDIGFGVYFEWTDSPNTAVSVHVSESSDDDEEEEENIGCEEKAKKNANKPLLDEIVPVYRRDCHEEVYAGSHQYPGRGVYLLKFDNSYSLWRSKSVYYRVYYTR
notes: ACBD3, human, UniProtKB entry Q9H3P7, full length; Called untagged in the pull-downs; also called GCP60; PAP7; source: E. coli BL21 Star, purified (Ni-NTA, TEV, SEC); not shown: His6, N-terminal, cleaved; GB1, N-terminal, cleaved
B5: PI4KB, untagged (residues 423-522 removed) (enzyme, human, UniProt Q9UBF8 1-816, looked up)
chain: MGDTVVEPAPLKPTSEPTSGPPGNNGGSLLSVITEGVGELSVIDPEVAQKACQEVLEKVKLLHGGVAVSSRGTPLELVNGDGVDSEIRCLDDPPAQIREEEDEMGAAVASGTAKGARRRRQNNSAKQSWLLRLFESKLFDISMAISYLYNSKEPGVQAYIGNRLFCFRNEDVDFYLPQLLNMYIHMDEDVGDAIKPYIVHRCRQSINFSLQCALLLGAYSSDMHISTQRHSRGTKLRKLILSDELKPAHRKRELPSLSPAPDTGLSPSKRTHQRSKSDATASISLSSNLKRTASNPKVENEDEELSSSTESIDNSFSSPVRLAPEREFIKSLMAIGKRLATLPTKEQKTQRLISELSLLNHKLPARVWLPTAGFDHHVVRVPHTQAVVLNSKDKAPYLIYVEVLECENFDTTSVPARIPENRRDPEDPSAVALKEPWQEKVRRIREGSPYGHLPNWRLLSVIVKCGDDLRQELLAFQVLKQLQSIWEQERVPLWIKPYKILVISADSGMIEPVVNAVSIHQVKKQSQLSLLDYFLQEHGSYTTEAFLSAQRNFVQSCAGYCLVCYLLQVKDRHNGNILLDAEGHIIHIDFGFILSSSPRNLGFETSAFKLTTEFVDVMGGLDGDMFNYYKMLMLQGLIAARKHMDKVVQIVEIMQQGSQLPCFHGSSTIRNLKERFHMSMTEEQLQLLVEQMVDGSMRSITTKLYDGFQYLTNGIM
notes: Phosphatidylinositol 4-kinase beta (PI4KB), human, UniProtKB entry Q9UBF8 isoform 1, with the intrinsically disordered region 423-522 removed; Called untagged in the pull-downs; the AUC mass of about 80 kDa fits the deleted form; also called PI4K IIIβ; untagged full-length PI4KB; source: E. coli BL21 Star, purified (Ni-NTA, TEV, SEC); not shown: His6, N-terminal, cleaved; GB1, N-terminal, cleaved

Assays:
Details in all cases: both partners purified
[1] = biological target: T1, His6GB1-tagged PI4KB V42A mutant (human, UniProt Q9UBF8 1-816, V42A | residues 423–522 removed); assay: pull-down; Ni-NTA sepharose beads, one partner with N-terminal His6GB1 tag immobilised, both partners 1 μM in 200 μL 30 mM Tris pH 8, 200 mM NaCl, 10 mM imidazole, 1 mM TCEP; 30 min at 4 °C; SDS gels stained with Coomassie Blue
T1 construct: PI4KB, human, UniProtKB Q9UBF8 isoform 1, residues 423-522 removed, point mutant; source: E. coli BL21 Star, purified (Ni-NTA, SEC); not shown: His6, N-terminal, kept; GB1, N-terminal, kept

[2] = biological target: T2, His6GB1-tagged PI4KB V47A mutant (human, UniProt Q9UBF8 1-816, V47A | residues 423–522 removed); assay: as above
T2 construct: PI4KB, human, UniProtKB Q9UBF8 isoform 1, residues 423-522 removed, point mutant; source: E. coli BL21 Star, purified (Ni-NTA, SEC); not shown: His6, N-terminal, kept; GB1, N-terminal, kept

[3] = biological target: B5; assay: SPR; legend: PI4KB binding to immobilized ACBD3; methods: PI4KB chip-immobilized, ACBD3 injected in a series of concentrations for 3 min, dissociation 5 min; single-exponential model
[4] = biological target: T3, N-terminal His6GB1-tagged PI4KB (residues 423-522 removed) (human, UniProt Q9UBF8 1-816, residues 423–522 removed); assay: pull-down; Ni-NTA sepharose beads, one partner with N-terminal His6GB1 tag immobilised, both partners 1 μM in 200 μL 30 mM Tris pH 8, 200 mM NaCl, 10 mM imidazole, 1 mM TCEP; 30 min at 4 °C; SDS gels stained with Coomassie Blue
T3 construct: Phosphatidylinositol 4-kinase beta (PI4KB), human, UniProtKB entry Q9UBF8 isoform 1, with the intrinsically disordered region 423-522 removed; also called PI4K IIIβ; His6-tagged wild type PI4KB; source: E. coli BL21 Star, purified (Ni-NTA, SEC); not shown: His6, N-terminal, kept; GB1, N-terminal, kept

[5] = biological target: B1; assay: as above
[6] = biological target: B5; assay: as above
[7] = biological target: B1; assay: AUC; sedimentation velocity, full-length proteins alone and as complex, 5 μM (both proteins); 10 mM Tris pH 8, 200 mM NaCl, 3 mM β-mercaptoethanol, 20 °C, 48000 rpm; c(s) model

Question: What does the source list for B1?
Answer: binding result [1]: binds; binding result [2]: binds; Kd [3]: 320 nM

B2: ACBD3 Y266A mutant, untagged (natural protein, human, UniProt Q9H3P7 1-528, looked up)
chain: MAAVLNAERLEVSVDGLTLSPDPEERPGAEGAPLLPPPLPPPSPPGSGRGPGASGEQPEPGEAAAGGAAEEARRLEQRWGFGLEELYGLALRFFKEKDGKAFHPTYEEKLKLVALHKQVLMGPYNPDTCPEVGFFDVLGNDRRREWAALGNMSKEDAMVEFVKLLNRCCHLFSTYVASHKIEKEEQEKKRKEEEERRRREEEERERLQKEEEKRRREEEERLRREEEERRRIEEERLRLEQQKQQIMAALNSQTAVQFQQYAAQQAPGNYEQQQILIRQLQEQHYQQYMQQLYQVQLAQQQAALQKQQEVVVAGSSLPTSSKVNATVPSNMMSVNGQAKTHTDSSEKELEPEAAEEALENGPKESLPVIAAPSMWTRPQIKDFKEKIQQDADSVITVGRGEVVTVRVPTHEEGSYLFWEFATDNYDIGFGVYFEWTDSPNTAVSVHVSESSDDDEEEEENIGCEEKAKKNANKPLLDEIVPVYRRDCHEEVYAGSHQYPGRGVYLLKFDNSYSLWRSKSVYYRVYYTR
notes: ACBD3, human, UniProtKB Q9H3P7, point mutant; source: E. coli BL21 Star, purified (Ni-NTA, TEV, SEC); not shown: His6, N-terminal, cleaved; GB1, N-terminal, cleaved
Question: Does B2 bind [4]?
Answer: binds

B3: N-terminal His6GB1-tagged PI4KB N-terminal region (residues 1-68) (domain or fragment, human, UniProt Q9UBF8 1-68, looked up)
chain: MGDTVVEPAPLKPTSEPTSGPPGNNGGSLLSVITEGVGELSVIDPEVAQKACQEVLEKVKLLHGGVAV
notes: PI4KB N-terminal region preceding the helical domain, human, UniProtKB Q9UBF8 isoform 1, residues 1-68; also called N-terminal region of PI4KB; source: E. coli BL21 Star, purified (Ni-NTA, SEC); not shown: His6, N-terminal, kept; GB1, N-terminal, kept
Question: Does B3 bind [5]?
Answer: binds

B4: N-terminal His6GB1-tagged ACBD3 Q domain (residues 241-308) (domain or fragment, human, UniProt Q9H3P7 241-308, looked up)
chain: QQKQQIMAALNSQTAVQFQQYAAQQYPGNYEQQQILIRQLQEQHYQQYMQQLYQVQLAQQQAALQKQQ
notes: ACBD3 Q domain (glutamine rich region), human, UniProtKB Q9H3P7, residues 241-308; also called Q domain of ACBD3; source: E. coli BL21 Star, purified (Ni-NTA, SEC); not shown: His6, N-terminal, kept; GB1, N-terminal, kept
Question: Does B4 bind [6]?
Answer: binds

Question: Which “stoichiometry N” value [7] does the source give for B5 here?
Answer: 1
